For one substance, inhibition rate results are on record in patent US20100291540A1.

Test [1] concerns the target starch binding domain derived from Aspergillus niger glucoamylase (AnSBD) (Aspergillus niger) (UniProt P69328). The test can be described thus: competition sandwich ELISA, 250 nM gp140 premixed with panel, AnSBD-coated plate; competes with the panel's HIV antigen.
Test [2] concerns the target starch binding domain derived from Rhizopus oryzae glucoamylase (RoSBD) (Rhizopus oryzae) (UniProt P07683). Briefly: competition sandwich ELISA, 250 nM gp140 premixed with panel, RoSBD-coated plate; competes with the panel's HIV antigen. In general terms: In an ELISA, binding on a coated surface is turned into a signal by an enzyme label.

For the substance HIV1 gp140 antigen, the inhibition rate in test [1] was found to be 40.1%; in test [2], 42.9%.
